# According to the nanobody polyreactivity screen of Harvey et al. (2022):
# Test: yeast display, Sf9 membrane polyspecificity reagent, FACS + sequencing; frameworks hold sequencing errors
# Outline: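 Genes from sorted yeast were amplified by colony PCR, read by MiSeq 2 × 250 sequencing and filtered on CDR length. These cells carried a synthetic nanobody library in Saccharomyces cerevisiae BJ5465 and were sorted by FACS into low and high (top ~1%) gates on anti-HA and streptavidin fluorescence. Polyreactivity is labelled according to the gate of origin.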
row,Sequence,polyreactivity (PSR sort gate)
1,QVQLVESGGGLVQAGGSLRLSCAASGYIFTIYAMGWYRQAPAKEREFVAAITWSGGRTYYADSVKGRFTISRDTAKNTVYLQMNSLKPEDSAVDYGAARVANYLSQMYYWGQGTQVTVSS,high polyreactivity
2,QVQLVESGGGLVQAGGSLRLSCAASGGTFRVYAMGWYRQAPGKERELVAAISGGGRTYADSVKGRFTISRDNAKITVYLQMNSLKPEDTAVYYCNTRRYYRVTTVKRYDYWGQGTQVTVSS,high polyreactivity
3,QVQLVESGGGLVQAGGSLRLSCAASGIIFSPYAMGLYRQAPGKERELVAAISYSGGSTYYADSVKGRFTISRDNAKNTVYLQMNSLKPEDTAVYYCAVVYSYYLAVLGYCDYDYWGQGTQVTVSS,low polyreactivity
4,QVHLVESVGGLVQAGGSLRLSSPASGGTLWVNTMGWYRQAPGKERELVAAISRRGGSTYYADSVKGRFTISRDNAKNTVYLQMNSRKPEDTAVYYCNARENAVSLRDYWGQGTQVTVSS,high polyreactivity
5,QVQHVESGRGLVQAGGILRLTCAASGRTFEYYAMGWYRQAPGKERELVAAITYSGDSTYYADSVKGRFTISRDNAKNTFYLQMNSLKPEDTAVYYCAADWSSLKDDYWGQGTQVTVSS,low polyreactivity
6,QVQLVESGGGLVQAGGSLRLSCAASGRTFSGNAMGWYRQAPGKERELVASISTSTDGTYYADSVKGRFTISRDNAKNTVYLQMNSLKAEDTAVYYCTTTTYHWYYYRWEIFDYRGQGTQVTVSS,low polyreactivity
7,QVQLVESGGGLVQAGASLRLSCAASGYIYPKYGMGWYIQAPGKERELVAAITGSGGSTYYADSVMGRITISRDNAKNTVYLHMNSLKPEDTAVYYCAKRSWIEYDYWGQGTQVTVSS,low polyreactivity
8,QVQLVESGGGLVQAGGSLRLSCAASGNIFPAYAMGWYRQAPGKERELVAAISKSGGRTYYAESVKGRFTISRDNAKNTVYLQMNSLKQEDTAVYYALLTVRRAVPYSVRYDYWGQGTQVTVSS,high polyreactivity
9,QVQLVESGGGLVQAGGSLRLSCAASGSIFRYYAMGWYRQAPWKERELVADISSGGSTYYADSVKGRFTISRDNAKNTVNLQMISQKPEDTAVYYCNDDYYAYPWTNDYWGQGTQVTVTS,high polyreactivity
10,QVQLVESGGGLVQAGGSLRLSCAASGSIFPYYAMGWYRPAPGKERELVAVISRGGGRTYYADSVKGRFTISRDNAKITVYLQMNSLKPEDTAVYYCYAGYPYGGDYWGQGTQVTVSS,high polyreactivity
11,QVQLVESGGGLVQAGGSLRLSCAASGFTFRLYDMGCYIQAPGKERELVAAISIRGGRTYYADSVKGRFTISRDNAKNTVYLQMNSLKPEDTAVYYCAAYSQYLKRDYWGQGTQVTVSS,high polyreactivity
12,QVQLVESGGGLVQAGGSLRLSFAASGSTFKFNAMGWYRQAPGKERELVATITSRGSRTYYADSVKGRFTISRDNAKNTVYLQMNSLKPEDTAVYYCAKVSKRVGFPTAMNYWGQGTQVTVSS,high polyreactivity
13,QVHLVDSGGGLVQARGSLRLSCAASGLTFRYYTMAWYRQAPGKERELVAAISSSGGSTYYADSVKGRFTISRDNAKNTVYLQMNSLKPEDTAVYYCADSASLRHVYWGQGTQVTVSS,high polyreactivity
14,QVQLVESGGGLVQAGGSLRLSCAASGSTLYVNAMGLYRQAPGKERELVAAISWRGDRTYYADSVKGRFTISRDNAKNNVYLQMNSLKPEDTAVYYCAKDYWWKGTTLYYNLDYWGQGTQVTVSS,high polyreactivity
15,QVQLVESGGGLVQAGGSLRLSCAASGIIFYDNAMGWYRKAPGKERELVATITRSGDSTYYADSVKGRFTISRDNAKNTVYLQMNSLKPEDTAVYYCAKDTYGVLAYFQVSREYWGQGTQVTVSS,low polyreactivity
16,QVQLVESGGGLVQAGGSLRLSCAASGSTFGLYAMGWYRQAPRKERELVAVIRWGSGRTYYADSVKGRFTISRDNAKNTVYLQMNSLKPEDTAVYYCAKDRSYGSSSKRFGYWGQGTQVTVSS,high polyreactivity
17,QVQLVESGGGLVQAGGSLRLSCADSGITLYYNAMGWYRQAPGKERELVAAISWSGDSTYYADSVKGRFTISRDNAKNTVYLQMNSLKPEDTAVYYCAADRYTYYHYAWYEYWGQGTQVTVSS,low polyreactivity
